# Test results published in patent US20200407435A1.
# Values joined by “and” are separate entries in the source; they are usually repeats but may differ in a detail not shown here. Equal entries are not always repeated.
# Target: rhAngiopoietin-2 (R&D systems cat 623-AN/CF) (human) (UniProt O15123)
# Assay: cell-based or functional assay
# Chain of rhAngiopoietin-2 (R&D systems cat 623-AN/CF) (human) (O15123 19-496 limits assumed): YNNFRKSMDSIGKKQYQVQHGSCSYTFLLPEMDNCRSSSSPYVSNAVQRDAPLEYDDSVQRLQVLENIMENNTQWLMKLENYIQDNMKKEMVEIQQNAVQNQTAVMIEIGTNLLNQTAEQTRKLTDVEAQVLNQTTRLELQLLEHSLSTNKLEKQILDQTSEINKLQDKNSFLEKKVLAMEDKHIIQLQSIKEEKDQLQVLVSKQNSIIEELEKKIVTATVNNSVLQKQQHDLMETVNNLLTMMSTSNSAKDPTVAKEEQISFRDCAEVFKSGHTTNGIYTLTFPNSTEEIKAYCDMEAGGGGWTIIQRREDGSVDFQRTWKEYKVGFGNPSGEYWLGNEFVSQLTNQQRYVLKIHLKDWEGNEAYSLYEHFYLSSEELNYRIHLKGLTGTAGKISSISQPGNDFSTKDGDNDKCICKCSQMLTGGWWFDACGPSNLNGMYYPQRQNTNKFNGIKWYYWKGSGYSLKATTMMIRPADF
substance,measurement,value
Nesvacumab analog (Regeneron) (antibody),"Tie2 phosphorylation functional assay, EC50",4.4 nM and 2.2 nM
